Assay results taken from patent US20150125397A1, “DUAL SPECIFIC BINDING PROTEINS DIRECTED AGAINST IMMUNE CELL RECEPTORS AND AUTOANTIGENS” (ABBVIE INC., priority 2013, published 2015).

What was measured:
mIgM = target: T1, mIgM (Mus musculus, UniProt P01872); experiment: IgM binding ELISA (mouse IgM); settings: for potency in IgM binding assay: among DVD3751-DVD3760; for IgM Binding EC50: mIgM-coated ELISA, half-log dilution 10 μg/ml-0.01 μg/ml
T1 sequence (P01872 1-454): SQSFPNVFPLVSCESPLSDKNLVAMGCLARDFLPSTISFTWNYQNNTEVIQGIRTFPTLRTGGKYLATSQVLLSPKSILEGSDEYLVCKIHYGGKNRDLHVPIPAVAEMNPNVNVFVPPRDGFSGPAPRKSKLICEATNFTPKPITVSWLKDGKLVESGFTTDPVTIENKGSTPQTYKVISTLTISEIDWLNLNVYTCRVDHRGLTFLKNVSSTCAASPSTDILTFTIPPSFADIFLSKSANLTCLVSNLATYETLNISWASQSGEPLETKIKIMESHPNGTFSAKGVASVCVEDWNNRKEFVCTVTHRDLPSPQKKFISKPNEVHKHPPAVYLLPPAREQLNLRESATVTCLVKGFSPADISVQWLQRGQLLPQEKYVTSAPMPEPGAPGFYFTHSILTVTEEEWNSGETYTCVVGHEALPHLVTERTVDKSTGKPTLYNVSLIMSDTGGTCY
Procedure: Reactivity of the DVD-Ig proteins with mIgM was determined by enzyme-linked immunosorbent assay (ELISA). Briefly, each well of an Ultra Cruz 96 well microtiter plate (Santa Cruz Biotechnology, Dallas, Tex.) was coated with mIgM at a concentration of 1 μg/ml in 100 μl of PBS. The plate was covered in plastic wrap and incubated overnight at 4° C. Each well of the plate was then washed 3× with 300 μl of PBST. After the final wash, 200 μl of blocking buffer (1% BSA in PBS) was added to each well and the plate incubated at RT for 2 hours. The plate was then washed as above. Rows B-H of the microtiter plate were filled with 100 μl of dilution buffer (1% BSA in PBST). The DVD-Ig proteins were then diluted to […] in dilution buffer and 147 μl of a DVD-Ig protein was added in duplicate to row A of a 96 well plate. For a ½ log dilution, 47 μl was transferred from row A to row B. The pipette tips were replaced with clean tips and 47 μl from row B was transferred to row C. The serial transfers were repeated as above until row G. To assess the binding of the secondary detection reagent to the coated IgM, the final transfer 47 μl was only transferred from G1-G10 to H1-H10 and wells H11 and H12 were left containing 100 μl of dilution buffer. To maintain a 100 μl assay volume, 47 μl was removed from wells H1-H10 and G11-G12 and discarded. After the serial dilution was completed, the plate was incubated for 1-2 hours at RT. The plate was washed as above and then 100 μl of horseradish peroxidase conjugated goat α-hIgG Fc specific, diluted 1:3,000 in dilution buffer, was added to each well. The plate was incubated for 1 hour at RT and then washed 4× as above. The plate was developed by adding 100 μl of 3′,3′,5′,5′-Tetramethylbenzidine (TMB) substrate solution to each well and incubating the plate in the dark for 10-15 minutes. The enzymatic reaction was stopped by adding 100 μl of 1M H2SO4 to each well. The plate was read at 450 nm on an EnVision 2102 multilabel reader (Perkin Elmer, Waltham, Mass.).
DVD-Ig proteins DVD3751-DVD3760 were characterized by IgM binding assay at half-log dilution starting at 10 μg/ml-0.01 μg/ml according to the method of Example 2.5.
IgM binding ELISA: Titrations of the DVD-Ig™ proteins (10 μg/ml to 0.01 μg/ml) were added to ELISA plates coated with murine IgM. Bound antibody was detected with biotinylated anti-human IgG and streptavidin-HRP. EC50 were calculated from the titration curve using Prism6.

DNA = experiment: Antinuclear antibody (ANA) test; type: binding; set-up: key to ANA score, relative result: (X)-(XXX) indicates relative results; (XX): (X)-(XXX) indicates relative results; (X)-(XXX) indicates relative results
Procedure: The cloned BWR4 and PA4 antibodies as well as the DVD-Ig proteins were tested for ANA reactivity using the ANA test kit. Briefly, the DVD-Ig proteins and antibodies were diluted to […] in blocking buffer (1% BSA in PBS). The DVD-Ig proteins and antibodies were added to separate wells of an ANA slide at 50 μl/well and incubated in a moist chamber for 2 hours at room temperature (RT). The wells were then washed 3× with PBS. To detect bound antibodies, Alexa Fluor 488 conjugated goat α-human IgG (α-hIgG) was then added at a dilution of 1:1,000 and the slide incubated in a moist chamber for 1 hour. Unbound detecting antibody was removed by immersing the slide in a jar containing PBS and incubating for 10 minutes at RT with gentle rocking. The prior step was repeated 2× and 10 μl of Prolong® Gold Antifade was added to each well and a 24 mm×60 mm #1 cover glass seated on top. The covered slide was incubated overnight at RT and then sealed by applying clear nail polish to the edges. Binding of the DVD-Ig proteins and antibodies to the slides was assessed by fluorescence microscopy.
DVD-Ig proteins DVD3751-DVD3760 were characterized by antinuclear antibody (ANA) staining at 10 μg/ml according to the method of Example 2.4.
ANA: HEp-2 human tissue culture substrate slides were incubated with 5 μg/ml of the anti-DNA-IgG2a or the DVD-Ig™ binding protein for 2 hours at RT. The slides were washed and bound antibodies were detected with Alexa-488 goat anti-human antibody or DyLight 488 goat anti-mouse antibody.

AM14 WT B cells = experiment: [3H]thymidine incorporation, BCR/TLR9 stimulation of AM14 WT B cells; type: cell-based, mouse; set-up: key to 3H incorporation AM14 WT, relative result: (X)-(XXX) indicates relative results; (XX): (X)-(XXX) indicates relative results; (X)-(XXX) indicates relative results; level of 3H incorporation / 3H incorporation AM14 WT: dose or concentration left out as unconfirmed; settings: for 3H incorporation AM14 WT: 24 hours, then 6 hours pulse
Source text: (§1) The AM14 B cell receptor (BCR) transgenic mouse has been described previously (Sweet et al. (2010) Autoimmun 43(8): 607-18). Briefly, AM14 is a BCR comprising the AM14 heavy chain and the Vk8 light chain that recognizes murine IgG2a (mIgG2a) of the “a” allotype. Between 95-98% of B cells in a mouse positive for the AM14 heavy chain and Vk8 light chain express the AM14 BCR. To generate AM14 B cells that are deficient in TLR9, TLR7 or FcγRIIB, the AM14 and Vk8 genes were bred to the appropriate knock out mice.
(§2) Primary murine B cells were purified by positive selection using BD Imag™ CD45R/B220 magnetic particles (BD Biosciences, San Jose, Calif.). Briefly, B cells were cultured in RPMI containing, pencillin-streptomycin, β-mercaptoethanol, and 5% heat-inactivated fetal calf serum (FCS) in 96 well flat bottom plates at a density of 4×10^5 cells/well. For stimulation through the BCR and TLR9, B cells were treated with a titration of 0.3 μg/ml-0.03 μg/ml of PA4 or 5 μg/ml to 0.15 μg/ml of a DVD-Ig protein (DVD3751, DVD3752, DVD3754, DVD3755, DVD3759 and DVD3760), unless otherwise noted. Cells were also treated with 1 μg/ml 1826, an experimental ligand for TLR9, as a control. After 24 hours, the cells were pulsed for 6 hours with [3H]thymidine (Perkin Elmer, Waltham Mass.). Incorporation of [3H]thymidine was quantified via a liquid scintillation beta counter (Trilux 1450 MicroBeta, PerkinElmer) according to standard methods.
(§3) DVD-Ig proteins DVD3751-DVD3760 were characterized by ^3H incorporation at […] according to the method of Example 2.6.

AM14 TLR9−/− B cells = experiment: [3H]thymidine incorporation, BCR/TLR9 stimulation of AM14 TLR9-/- B cells; type: cell-based, mouse; settings: at 5 mg/ml; 24 hours, then 6 hours pulse
Source text: as §1, §2, §3

B1: DVD3756: DVD-Ig: VD1 mIgM (B7.6), GS linker, VD2 DNA(PA4); heavy SEQ ID NO 58, light 59 (antibody)
heavy: QVQLKESGPGLVKPSLTLSLTCTVSGFSLNGYGVIWVRQPPGKGLEWMGVIWGNGNTNYNSTLKSRLSISRDTSKSQVFLKMNNLQTEDTAMYFCARSENYYSSPGYFAYWGQGTLVTVSSGGGGSGGGGSEVQLVESGGGLVKPGGSLKLSCVASGFTFSTYAMSWVRQTPTKRLEWVATISRGGVSTYYPDTVKGRFTISRDNAKNTLYLQMSSLRSEDTAMYYCARPPTIVTTWFAYWGQGTLVTVSS
light: NTVMTQSPTSMFISVGDRVTMNCKASQNVGSDVDWYQQKTGQSPKLLISGTSNRYTGVPDRFTGSGSGTDFTLTISNMQAEDLAVYYCLQYNYNPTFGAGTKLELKRGGSGGGGSGDVVMTQTPLSLPVSLGDQASISCRSSQSLVHSNGNTYLHWYLQKPGQSPKLLIYKVSNRFSGVPDRFSGSGSGTDFTLKISRVEAEDLGAYFCSQSTHVPYTFGGPTRLEIKR
- potency in IgM binding assay (mIgM): highest potency
- IgM Binding EC50 (mIgM): 0.0331 µg/mL
- ANA score (DNA; ANA staining at 10 μg/ml): 1
- 3H incorporation AM14 WT, relative result (AM14 WT B cells): (X)
- 3H incorporation AM14 WT (AM14 WT B cells): (7793)
- 3H incorporation AM14 TLR9−/− (AM14 TLR9−/− B cells): (459)

B2: DVD3757: DVD-Ig: VD1 mIgM (B7.6), SS linker, VD2 DNA(PA4); heavy SEQ ID NO 60, light 61 (antibody)
heavy: QVQLKESGPGLVKPSLTLSLTCTVSGFSLNGYGVIWVRQPPGKGLEWMGVIWGNGNTNYNSTLKSRLSISRDTSKSQVFLKMNNLQTEDTAMYFCARSENYYSSPGYFAYWGQGTLVTVSSASTKGPEVQLVESGGGLVKPGGSLKLSCVASGFTFSTYAMSWVRQTPTKRLEWVATISRGGVSTYYPDTVKGRFTISRDNAKNTLYLQMSSLRSEDTAMYYCARPPTIVTTWFAYWGQGTLVTVSS
light: NTVMTQSPTSMFISVGDRVTMNCKASQNVGSDVDWYQQKTGQSPKLLISGTSNRYTGVPDRFTGSGSGTDFTLTISNMQAEDLAVYYCLQYNYNPTFGAGTKLELKRTVAAPDVVMTQTPLSLPVSLGDQASISCRSSQSLVHSNGNTYLHWYLQKPGQSPKLLIYKVSNRFSGVPDRFSGSGSGTDFTLKISRVEAEDLGAYFCSQSTHVPYTFGGPTRLEIKR
- potency in IgM binding assay (mIgM): highest potency
- IgM Binding EC50 (mIgM): 0.04178 µg/mL
- ANA score (DNA; ANA staining at 10 μg/ml): 1
- 3H incorporation AM14 WT, relative result (AM14 WT B cells): (X)
- 3H incorporation AM14 WT (AM14 WT B cells): (4063)
- 3H incorporation AM14 TLR9−/− (AM14 TLR9−/− B cells): (382)

B3: DVD3760: DVD-Ig: VD1 mIgM (B7.6), LS linker, VD2 DNA(PA4); heavy SEQ ID NO 66, light 67 (antibody)
heavy: QVQLKESGPGLVKPSLTLSLTCTVSGFSLNGYGVIWVRQPPGKGLEWMGVIWGNGNTNYNSTLKSRLSISRDTSKSQVFLKMNNLQTEDTAMYFCARSENYYSSPGYFAYWGQGTLVTVSSASTKGPSVFPLAPEVQLVESGGGLVKPGGSLKLSCVASGFTFSTYAMSWVRQTPTKRLEWVATISRGGVSTYYPDTVKGRFTISRDNAKNTLYLQMSSLRSEDTAMYYCARPPTIVTTWFAYWGQGTLVTVSS
light: NTVMTQSPTSMFISVGDRVTMNCKASQNVGSDVDWYQQKTGQSPKLLISGTSNRYTGVPDRFTGSGSGTDFTLTISNMQAEDLAVYYCLQYNYNPTFGAGTKLELKRTVAAPDVVMTQTPLSLPVSLGDQASISCRSSQSLVHSNGNTYLHWYLQKPGQSPKLLIYKVSNRFSGVPDRFSGSGSGTDFTLKISRVEAEDLGAYFCSQSTHVPYTFGGPTRLEIKR
- potency in IgM binding assay (mIgM): highest potency
- IgM Binding EC50 (mIgM): 0.03529 µg/mL
- ANA score (DNA; ANA staining at 10 μg/ml): 1
- 3H incorporation AM14 WT, relative result (AM14 WT B cells): (X)
- 3H incorporation AM14 WT (AM14 WT B cells): (4335)
- 3H incorporation AM14 TLR9−/− (AM14 TLR9−/− B cells): (302)

B4: DVD3752: DVD-Ig: VD1 DNA(PA4), SS linker, VD2 mIgM (B7.6); heavy SEQ ID NO 50, light 51 (antibody)
heavy: EVQLVESGGGLVKPGGSLKLSCVASGFTFSTYAMSWVRQTPTKRLEWVATISRGGVSTYYPDTVKGRFTISRDNAKNTLYLQMSSLRSEDTAMYYCARPPTIVTTWFAYWGQGTLVTVSSASTKGPQVQLKESGPGLVKPSLTLSLTCTVSGFSLNGYGVIWVRQPPGKGLEWMGVIWGNGNTNYNSTLKSRLSISRDTSKSQVFLKMNNLQTEDTAMYFCARSENYYSSPGYFAYWGQGTLVTVSS
light: DVVMTQTPLSLPVSLGDQASISCRSSQSLVHSNGNTYLHWYLQKPGQSPKLLIYKVSNRFSGVPDRFSGSGSGTDFTLKISRVEAEDLGAYFCSQSTHVPYTFGGPTRLEIKRTVAAPNTVMTQSPTSMFISVGDRVTMNCKASQNVGSDVDWYQQKTGQSPKLLISGTSNRYTGVPDRFTGSGSGTDFTLTISNMQAEDLAVYYCLQYNYNPTFGAGTKLELKR
- IgM Binding EC50 (mIgM): 0.205 µg/mL
- level of ANA staining (DNA; 10 μg/ml, among DVD3751-DVD3760): highest level of staining
- ANA score (DNA; ANA staining at 10 μg/ml): 4
- ANA score, relative result (DNA; ANA staining at 10 μg/ml): (XXX)
- 3H incorporation AM14 WT, relative result (AM14 WT B cells): (XX)
- 3H incorporation AM14 WT (AM14 WT B cells): (12682)
- 3H incorporation AM14 TLR9−/− (AM14 TLR9−/− B cells): (512)
